Measured values as given in publication PMC12751052.

Target: AcrIII-2 (second anti-CRISPR of type III systems), viral SAVED protein of Thermocrinis Great Boiling Spring virus (Thermocrinis Great Boiling Spring virus)
Test: crystal structure; apo AcrIII-2, X-ray, data to 1.79 Å; crystals from 1.2 M sodium dihydrogen phosphate, 0.8 M dipotassium hydrogen phosphate, 0.2 M lithium sulphate, 0.1 M CAPS pH 10, 293 K

## AcrIII-2 (second anti-CRISPR of type III systems), viral SAVED protein of Thermocrinis Great Boiling Spring virus (natural protein)
  stoichiometry N: 2
